Data set [1] has as its target T1, GST-ABI5 (Arabidopsis thaliana, UniProt Q9SJN0 1-442).
T1 sequence: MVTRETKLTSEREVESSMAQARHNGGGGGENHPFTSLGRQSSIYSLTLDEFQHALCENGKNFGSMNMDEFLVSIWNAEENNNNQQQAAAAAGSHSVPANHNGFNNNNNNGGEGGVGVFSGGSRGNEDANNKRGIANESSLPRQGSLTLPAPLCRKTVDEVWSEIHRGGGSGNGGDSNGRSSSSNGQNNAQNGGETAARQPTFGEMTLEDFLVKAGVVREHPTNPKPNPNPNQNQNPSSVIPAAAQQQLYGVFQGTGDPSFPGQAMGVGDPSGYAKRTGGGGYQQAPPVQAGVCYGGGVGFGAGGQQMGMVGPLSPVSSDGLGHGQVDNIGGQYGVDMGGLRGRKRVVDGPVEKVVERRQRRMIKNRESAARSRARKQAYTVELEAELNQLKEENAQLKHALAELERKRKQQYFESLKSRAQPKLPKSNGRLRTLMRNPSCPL
The data set can be described thus: EMSA. In general terms: In EMSA bound probe runs differently from free probe, usually more slowly.

The target in another data set is T2, BBX30 (miP1b) (Arabidopsis thaliana, UniProt Q1G3I2 1-117).
T2 sequence: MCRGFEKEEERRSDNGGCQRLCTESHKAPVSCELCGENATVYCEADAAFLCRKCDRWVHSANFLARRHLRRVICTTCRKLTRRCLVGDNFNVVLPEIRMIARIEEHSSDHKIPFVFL
The data set can be described thus: EMSA.

A further data set concerns the target T3, BBX31 (miP1a) (Arabidopsis thaliana, UniProt Q9LRM4 1-121).
T3 sequence: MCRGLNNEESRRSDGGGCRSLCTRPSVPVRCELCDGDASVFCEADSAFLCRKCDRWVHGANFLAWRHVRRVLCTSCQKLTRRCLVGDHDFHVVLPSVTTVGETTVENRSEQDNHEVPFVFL
The data set can be described thus: EMSA.

Data set [2] has as its target T4, GST-ABI5 (Arabidopsis thaliana, UniProt Q9SJN0 1-442).
T4 sequence: T1 sequence
The experiment in a line: pull-down.

Changes are numbered by the printed parent chain.

B1: BBX31 promoter probe (dsDNA)
DNA 1: AAATAACAGGGCAAGATTCATCCACGTGTCCAACAACAACACAACACAAA
DNA 2: TTTGTGTTGTGTTGTTGTTGGACACGTGGATGAATCTTGCCCTGTTATTT
On to B1, for which the binding result with GST-ABI5 [1] is on record as “binds”.

B2: mutBBX31 probe (dsDNA)
DNA 1: B1 DNA 1 with C23A, A24C, T27G
DNA 2: B1 DNA 2 with A24C, T27G, G28T
Take B2: the binding result with GST-ABI5 [1] is “no binding”.

B3: ABI5 promoter probe (dsDNA)
DNA 1: GCAAGAAACAGAAGAGAGACACGTGCAGGACACGTGTCGTCCGCAGCCGAACGGA
DNA 2: TCCGTTCGGCTGCGGACGACACGTGTCCTGCACGTGTCTCTCTTCTGTTTCTTGC
Consider B3, for which the binding result with BBX30 (miP1b) and with BBX31 (miP1a) was “no binding” throughout.

B4: His-BBX30 (natural protein)
chain: T2 sequence
For the molecule B4, the binding result with GST-ABI5 [2] is on record as “binds”.

B5: His-BBX31 (natural protein)
chain: T3 sequence
Turning to B5, the binding result with GST-ABI5 [2] is “binds”.

B6: BBX30 promoter probe (dsDNA)
DNA 1: GTCAATATTTTTCCACGTGTACAACCAGTTTA
DNA 2: TAAACTGGTTGTACACGTGGAAAAATATTGAC
Take B6: the binding result with GST-ABI5 [1] was “binds”.

B7: mutBBX30 probe (dsDNA)
DNA 1: B6 DNA 1 with C16A, G17A, T18A, G19A
DNA 2: B6 DNA 2 with C14T, A15T, C16T, G17T
For B7, in the data set with GST-ABI5 [1], the binding result is recorded as “no binding”.

B8: EM6 promoter probe (dsDNA)
DNA 1: AATAAAGTCAGACACGTGGCATGTCACCAA
DNA 2: TTGGTGACATGCCACGTGTCTGACTTTATT
With B8, the binding result with BBX30 (miP1b) and in the data set with BBX31 (miP1a) was “no binding” in each case.

(Values after publication doi:10.1101/2022.06.21.497044 (bioRxiv, 2022).)
